The text below walks through data of patent US20240352438A1, “MEANS AND METHODS FOR DETOXIFYING OCHRATOXIN A” (DSM Austria GmbH, priority 2021, published 2024).

Data set [1] in a line: OTA detoxification activity assay (specific activity, fluorescence reduction ex/em 390/450 nm). The data set is classed as biochemical. The conditions noted are these: for Specific OTA detoxification activities in U/g at pH 6.0 / Specific OTA detoxification activities in U/g at pH 7.5: 37° C., 200 ng/mL OTA, 100 mM sodium phosphate buffer. An outline of the steps:
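Recombinant enzyme preparation with 200 ng/mL OTA in 100 mM sodium phosphate, at pH 6.0 and pH 7.5, 37° C. Degradation followed as the fall in fluorescence at ex/em 390/450 nm. Specific activity taken from the initial linear slope; one unit degrades 1 μmol OTA per min at a starting OTA of […].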

Data set [2] is described as follows: Thermostability assay: residual OTA detoxification activity after 10 min incubation at 45-99° C. (T50). It counts as physicochemical. As to conditions: 0.1 mg/mL protein in 20 mM Tris-HCl pH 7.5, residual OTA detoxification activity relative to 4° C. reference aliquot. On the procedure: Stability was determined in terms of thermostability. Notwithstanding, a person having skill in the art is aware that stability towards high temperature (e.g. more than 30° C.) often correlates with stability towards other non-standard conditions such as stability towards acidic or basic pH (e.g. below pH 6.5 or above pH 7.5, respectively), towards elevated salt concentrations, organic solvents or drying.
To determine the kinetic stability of the produced enzymes, thermostability assays were performed. To this end, purified protein samples were diluted to a protein concentration of 0.1 mg/mL in 20 mM Tris-HCl buffer pH 7.5 and aliquots were incubated in a thermocycler for 10 min at either 45, 55, 65, 75, 80, 85, 90, 95 or 99° C. After this incubation, the aliquots were stored at 4° C. until further analysis. A reference aliquot was stored at 4° C. throughout the incubation. Subsequently, all aliquots were assayed for residual OTA detoxification activity using the assay described in Example 3. Residual enzyme activities were calculated relative to the reference aliquot. The temperature range in which 50% of the initial activity was lost after the incubation (T50), in relation to the reference aliquot was determined.

B1: 1 (protein)
chain: APAAPHTVVLRAARMFDGASGKLVDHPQLTIVGNKIVRIAQGDKAEVPAGAEVVDLGDATLLPGFIDAHVHLSGQSSDNWYGDFFDNMMRFPAEQALYGAYYARITLEAGFTSVRDVGSTDWVALGLRNAIDAGKVPGPRMLVSNYAVGSTGGHADQDPIPPHKLPLAGPLQGVCNGPEECRAAVRYQIKYGANVIKFMPSGGVLSLSDPVDAPELSQDEMNAVIGESHAWGRKVAAHAHGDKAAKMAVAAGVDSIEHGSFIEDDTLRAMKAKNVYLVPTISAIAHVEEKIGTFPPVIAEKGRAAAAHLRQTFRHAVQIGVPIALGTDAGVGAHGSNAREFRYMVENGLTPAQALLAGTANAARLLGTFDRVGTLEAGKLADVVAVPGNPIADITVTERPLFVMKDGVVVRRDAVR
modifications: polypeptide 1
On to B1, for which, in data set [1] (pH 6.0), the “Specific OTA detoxification activities in U/g at pH 6.0” value turned out to be 99.00 U/g. The “Specific OTA detoxification activities in U/g at pH 7.5” value in data set [1] (pH 7.5) was 191.89 U/g. In data set [2], the “T50 (temperature at which 50% of the initial activity was maintained)” value was 65-75 °C.

B2: 2 (protein)
chain: MYSLAIRNGIVFDGEKFIGKTNIYVDGDKIVKITNERLDAKEEVNAEGYFVMPGLIDAHLHLTGIRGGSLLMGYLLDDPRTRLLRAANWARELLMAGFTTVRDCGEPNSIILRNAINEGIIPGPRIIAAGSPITQTFGHAELSHSLPLEWSIQLGFGEICDGVDECIKAARKVLRSGADFIKIMATGGVLSERDRPEWPQLTPEEMSAIVREAEKVGTYVAAHAHGDKGARIAVEAGVRTIEHGSLITEETVKLMAEKGVSLTPTLSIQELIYKYGKQMGIDPWGLEKIGQVREGVINSIKLARKYGVMILAGTDLGFKTGLDIDMGKNWVEVKLLVELGGLSSEEALRAATGNASKMLRLNTGIIREGYLADIVLINGNPLENINDIARVSTVIKGGKVTVENGKLI
modifications: polypeptide 2
Turning to B2, the “Specific OTA detoxification activities in U/g at pH 6.0” value in data set [1] (pH 6.0) was 0.61 U/g. Also, the “Specific OTA detoxification activities in U/g at pH 7.5” value in data set [1] (pH 7.5) was 0.73 U/g. Besides, the “T50 (temperature at which 50% of the initial activity was maintained)” value in data set [2] is over 95 °C.

B3: 39 (protein)
chain: MYSLAIRNGIVFDGEKFIGKTNIYVDGDKIVKITNERLDAKEEVNAEGYFVMPGLIDAHLHLTGIRGGSLLMGYLLDDPRTRLLRAANWARELLMAGFTTVRDCGEPNSIILRNAINEGIIPGPRIIAAGSPITQTFGHAELSHSLPLEWSIQLGFGEICDGVDECIKAARKVLRSGADFIKIMATGGVLSERDRPEWPQLTPEEMSAIVREAEKVGTYVAAHAHGDKGARIAVEAGVRTIEHGSLITEETVKLMAEKGVSLTPTLSAQELIYKYGKQMGIDPWGLEKIGQVREGVINSIKLARKYGVMILAGTDLGFKTGLDIDMGKNWVEVKLLVELGGLSSEEALRAATGNASKMLRLNTGIIREGYLADIVLINGNPLENINDIARVSTVIKGGKVTVENGKLI
modifications: exemplary polypeptide
Consider B3, for which, in data set [1] (pH 6.0, SEQ ID NO: 2 = 100%), the “Specific OTA detoxification activities in % compared to the enzyme of SEQ ID NO: 2, pH 6.0” value is on record as 8.00%. Moreover, in data set [1] (pH 7.5, SEQ ID NO: 2 = 100%), the “Specific OTA detoxification activities in % compared to the enzyme of SEQ ID NO: 2, pH 7.5” value stood at 15.00%. For the same molecule, in data set [2], the “T50 (temperature at which 50% of the initial activity was maintained)” value was over 99 °C.

B4: 17 (protein)
chain: MTTRLRILTASLALLAANACAADAAPSTPHTVVLRAARMFDGASGKIVEHPQLTIVGNKIVRIAQGKEEDNRTGIPAGADVIDLGDATLLPGFIDAHVHLSGQSSDNWYGDFFDNMMRFPAEQALYGAYYARITLEAGFTSVRDVGSTDWIALGLRNAIDAGKVPGPRMLVSNYAVGSTGGHADQDPIPPQKLAPAGPLQGVCNGPEECRAAVRYQIKYGANVIKFMPSGGVLSLSDPVDAPELSQDEMNAVIGEAHAWGRKVAAHAHGDKAAKMAVTAGVDSIEHGSFLEDDTLRMMKAKGVYLVPTISAIAHVEEKIATFPSVIAEKGRAAASHSRQMFRHAVQIGVPIALGTDAGVGAHGTNAREFRYMVDNGLTPAQSLMAGTANAARLLGTFDRVGTLEAGKLADVVAVPGNPIADITVTERPVFVMKDGVVVRRGAVR
modifications: polypeptide 3
Take B4: in data set [1] (pH 6.0), the “Specific OTA detoxification activities in U/g at pH 6.0” value came to 11.65 U/g. In addition, the “Specific OTA detoxification activities in U/g at pH 7.5” value in data set [1] (pH 7.5) stood at 28.44 U/g. Moreover, in data set [2], the “T50 (temperature at which 50% of the initial activity was maintained)” value was 65-75 °C.

B5: 21 (protein)
chain: MTTPTRILTAVLALLASNACAADATPSTPHTVVLRAARMFDGASGKLVERPQLTIVGNKIVRIAQADKADVPAGAEVIDLGDATLLPGFIDAHVHLSGQGSDNWYGDFFDNMMRFPAEQALYGAYYARITLEAGFTSVRDVGSTDWVALGLRNAIDAGKVPGPRMLVSNYAVGSTGGHADQDPIPPHKLPLAGPLQGVCNGPEECRAAVRYQIKYGANVIKFMPSGGVLSLSDPVDAPELSQDEMNAVIGESHAWGRKVAAHAHGDKAAKMAVAAGVDSIEHGSFIEDDTLRAMKAKGVYLVPTISAIAHVEEKIATFPPVIAEKGRAAAAHLRQTFRHAVQIGVPIALGTDAGVGAHGTNAREFRYMVENGLSPAQSLLAGTSNAARLLGTIDRVGTLEAGKLADVVAVPGNPIADITVTERPVFVMKDGVVVRRGAVR
modifications: polypeptide 7
As for B5, the “Specific OTA detoxification activities in U/g at pH 6.0” value in data set [1] (pH 6.0) stood at 20.53 U/g. Moreover, the “Specific OTA detoxification activities in U/g at pH 7.5” value in data set [1] (pH 7.5) stood at 30.87 U/g. Moreover, the “T50 (temperature at which 50% of the initial activity was maintained)” value in data set [2] was 65-75 °C.

B6: 368 (protein)
chain: MTTPTRILTAVLSLLAANACAADAAPATPHTVVLRAARMFDGASGKLVERPQLTIVGNKIVRIAQADKADVPAGAEVIDLGDATLLPGFIDAHVHLSGQGSDNWYGDFFDNMMRFPAEQALYGAYYARITLEAGFTSVRDVGSTDWVALGLRNAIDAGKVPGPRMLVSNYAVGSTGGHADQDPIPPHKLPLAGPLQGVCNGPEECRAAVRYQIKYGANVIKFMPSGGVLSLSDPVDAPELSQDEMNAVIGESHAWGRKVAAHAPGDKAAKMAVAAGVDSIEHGSFIEDDTLRAMKAKGVYLVPTISAIAHVEEKIATFPPVIAEKGRAAAAHLRQTFRHAVQIGVPIALGTDAGVGAHGTNAREFRYMVENGLSPAQSLLAGTSNAARLLGTIDRVGTLEAGKLADVVAVPGNPIADITVTERPVFVMKDGVVVRRGAVR
modifications: exemplary polypeptide
As for B6, the “Specific OTA detoxification activities in U/g at pH 6.0” value in data set [1] (pH 6.0) amounted to 3.70 U/g. The “Specific OTA detoxification activities in U/g at pH 7.5” value in data set [1] (pH 7.5) was 15.10 U/g. In addition, the “T50 (temperature at which 50% of the initial activity was maintained)” value in data set [2] was 68 °C.

B7: 369 (protein)
chain: MRTRTRILTASLALLAANAWAADAMPSTPHTVVLRAARMFDGASGKLVEHPQLTIVGNKIVRVAQDDKAAVPAGADVIDLGDATLLPGFIDAHVHLSGQSSDNWYGDFFDNMMRFPAEQALYGAWYARITLEAGFTSVRDVGSTDWIALGLRNAIDAGKVPGPRMLVSNYAIGSTGGHADQDPIPPQKLAPAGPLQGVCNGPDECRAAVRYQIKYGANVIKFMPSGGVLSLSDPVDAPELTQEEMNAVVGEAHAWGRKVAAHAHGDKAAKMAVAAGVDSIEHGSFLEDDTLRMMKAKGVYLVPTISAVMHVEEKIATFPPVIAEKGRAAAAHVRQTFRHAVQIGVPIALGTDAGVGAHGTNAREFRYMVDNGMAPAQALLAGTSNAARLLGTIDRVGTLEAGKLADVVAVPGNPVADITVTERPVFVMKDGVVVRRGAVR
modifications: exemplary polypeptide
Regarding B7, the “Specific OTA detoxification activities in U/g at pH 6.0” value in data set [1] (pH 6.0) is 122.50 U/g. The “Specific OTA detoxification activities in U/g at pH 7.5” value in data set [1] (pH 7.5) amounted to 159.80 U/g. In addition, the “T50 (temperature at which 50% of the initial activity was maintained)” value in data set [2] worked out at 68 °C.

B8: 22 (protein)
chain: MQYDVAIKNGNVFTGTEFIGKMNIYISNGKISKVSKEDLNAKQEIDAKDMLVMPGLIDAHMHISGLKGGSLLKIMFEKPEYRALRATKWLEKLLLAGFTTVRDCGEPISISLKRAVNEGYIKGPKIIAAGKPITQTFGHGEFSHDIPLEFSISLGFSEICDGTESCIHAARKVLRDGSDFIKIFATGGVLSQRDRPDMPQLSFDEIRAIVNEAEKAGTYVAAHAHGDKGARIAIEAGIKTLEHGSLLKEDTLKLMLEKNISLTPTLTITEIIYKYGKTIGVDEWGLEKIVEVRENLHKVLRKAKELGITIITGTDMGFETGLEDYDIGKNWTEILLLTEVGGLSNEEALRAATYNSAKALGLNSGLIDEGKDADIIVIDGNPLENIKDVSKVVHVIKQGKLEVLDGKIINNY
modifications: polypeptide 8
Regarding B8, the “Specific OTA detoxification activities in U/g at pH 6.0” value in data set [1] (pH 6.0) was found to be 0.66 U/g. For the same molecule, in data set [1] (pH 7.5), the “Specific OTA detoxification activities in U/g at pH 7.5” value stood at 0.79 U/g. In addition, in data set [2], the “T50 (temperature at which 50% of the initial activity was maintained)” value is over 95 °C.

B9: 18 (protein)
chain: MPPMRTRTRILTASLALLAANAWAADAMPSTPHTVVLRAARMFDGASGKLVEHPQLTIVGNKIVRVAQDDKAAVPAGADVIDLGDATLLPGFIDAHVHLSGQSSDNWYGDFFDNMMRFPAEQALYGAWYARITLEAGFTSVRDVGSTDWIALGLRNAIDAGKVPGPRMLVSNYAIGSTGGHADQDPIPPQKLAPAGPLQGVCNGPDECRAAVRYQIKYGANVIKFMPSGGVLSLSDPVDAPELTQEEMNAVVGEAHAWGRKVAAHAHGDKAAKMAVAAGVDSIEHGSFLEDDTLRMMKAKGVYLVPTISAVMHVEEKIATFPPVIAEKGRAAAAHVRQTFRHAVQIGVPIALGTDAGVGAHGTNAREFRYMVDNGMAPAQALLAGTSNAARLLGTIDRVGTLEAGKLADVVAVPGNPVADITVTERPVFVMKDGVVVRRGAVR
modifications: polypeptide 4
As for B9, the “Specific OTA detoxification activities in U/g at pH 6.0” value in data set [1] (pH 6.0) is recorded as 39.30 U/g. The “Specific OTA detoxification activities in U/g at pH 7.5” value in data set [1] (pH 7.5) came to 147.14 U/g. The “T50 (temperature at which 50% of the initial activity was maintained)” value in data set [2] was 81-83 °C.
